Experiment [1] concerns bFGF-induced angiogenesis (rat cornea neovascularization). Put plainly: Rat corneal micropocket assay for angiogenesis. It counts as in vivo. The method, then: In vivo angiogenesis was assessed using the rat cornea micropocket assay as previously described [Addison et al. cited above]. Briefly, reagents were diluted in PBS plus 0.25% serum albumin to their final concentration per pellet of Hydron casting solution (Hydro Med Sciences, New Brunswick N.J.). 5 μl aliquots were pipetted onto the flat surface of a sterile polypropylene specimen container and were allowed to polymerize overnight under UV light in a laminar flow hood. Prior to implantation, the pellets were rehydrated with normal saline. Animals were given 150 mg/kg ketamine and 250 μg/kg atropine, and the corneas were anesthetized with 0.5% proparacaine hydrochloride ophthalmic solution followed by implantation of the Hydron pellet into an intracorneal pocket (1-2 mm from the limbus). Six days after implantation, animals received heparin (1000 U) and ketamine (150 mg/kg) i.p. 30 min prior to sacrifice, followed by perfusion with 10 ml of colloidal carbon via the left ventricle. Corneas were then harvested and photographed. […] Sustained directional ingrowth of capillary sprouts and hairpin loops toward the implant were considered positive neovascularization responses.

Experiment [2] has as its system murine melanoma cells. Particulars: systemic treatment, mice injected i.v. with murine melanoma cells; cited from earlier work.
Experiment [3] has as its system Human lung microvascular endothelial cells (HMVEC-L). The experiment is described as follows: Endothelial cell chemotaxis assay (bFGF- or CXCL8-induced HMVEC migration). It counts as cell-based. Particulars: for inhibition of CXCL8-induced HMVEC chemotaxis: CXCL8 80 ng/ml; for inhibition of the migration of the cells: at a concentration of 50 ng/ml; for inhibition of bFGF-induced HMVEC chemotaxis: bFGF 50 ng/ml; for migration of HMVEC toward bFGF or CXCL8 (FIG. 4 Panel C): test protein 50 ng/ml, bFGF 50 ng/ml or CXCL8 80 ng/ml. The method, then:
Human lung microvascular endothelial cells (HMVEC-L) were obtained from Clonetics (Walkersville, Md.), and were cultured following the manufacturer's instructions in EBM-2 medium supplemented with the EGM-2-MV “bulletkit” containing FCS, ascorbic acid, hydrocortisone, fibroblast growth factor (FGF), vascular endothelial growth factor (VEGF), insulin-like growth factor I (IGF-I) and epidermal growth factor (EGF). Endothelial cell chemotaxis assays were performed as previously described [Addison et al. (2002) J Immunol 165, 5269-5277]. Cells were harvested by trypsinization, resuspended in EBM-2 medium without growth factors with 2% FCS added. An aliquot of 160 μl containing 5×10^5 cells/ml was added to each of the lower wells of a 12-well chemotaxis chamber (Neuro Probe Inc., Cabin John Md.). The chambers were assembled (by placing 0.1% gelatin coated 5 μm pore size filters over the lower wells, followed by a gasket and the upper chamber) and incubated at 37° C. in a CO2 incubator for 2 h in an inverted position. The chambers were then turned upright, and 100 μl aliquots of sample dilutions were added to the upper wells of the chamber. As endothelial cell chemoattractants CXCL8 and bFGF (both from Peprotech) were used. The chambers were placed in a 37° C. CO2 incubator for 2 h at which time the filters were removed, and subjected to Diff-Quik staining. The total number of migrated cells was counted in 15 separate fields of view under 400× power.

Experiment [4] in a line: Heparin-Sepharose affinity chromatography (heparin affinity). The experiment is classed as binding. Particulars: for salt concentration at elution from heparin-Sepharose column: linear NaCl gradient 0.05-2 M, pH 7.4. The procedure:
For large scale PF4 production, outdated platelets (Red Cross blood transfusion centre, Belgium) were stimulated with 1 U/ml thrombin (Sigma, St. Louis, Mo.) for 2 h at 37° C. in PBS. The conditioned medium was subsequently purified by a purification procedure previously described [Struyf et al (2003), cited above, Van Damme et al. (1992) J Exp Med 176, 59-65; Struyf et al. (2000) in Balkwill, F. ed. Cytokine molecular biology, a practical approach. Oxford, UK, Oxford University Press, pp 73-88]. The conditioned media (1 to 5 liters) were first concentrated and partially purified by adsorption to silica (“Silica Matrex”; pore size 100 A, particle size 35-70 μm; Millipore, Billerica, Mass.; 10 g/l conditioned medium). After 2 h of magnetical stirring at 4° C., the silicic acid was sedimented by centrifugation and subsequently washed once with PBS and once with PBS containing 1 M NaCl pH 7.4. Elution of proteins from the silica matrix was done by magnetically stirring three consecutive times with 100 ml of PBS containing 1.4 M NaCl and 50% ethylene glycol pH 7.4 during 30 min at 4° C. A second elution with 0.3 M glycine/HCl pH 2.0 buffer (2×100 ml) was performed to improve recovery of chemokines. Subsequently, the pooled eluates (500 ml) were dialyzed against equilibration/loading buffer (50 mM Tris/HCl-50 mM NaCl, pH 7.4) before fractionation by heparin-Sepharose chromatography (Amersham Pharmacia Biotech, Uppsala, Sweden). Proteins were eluted from the column in a linear NaCl gradient (0.05-2 M NaCl in the loading buffer; 5 ml-fractions). For all fractions, the protein concentration was determined by a Coomassie blue G-250 binding assay using the Bio-Rad commercial kit (Bio-Rad Laboratories, Hercules, Calif.). […] Purified fractions were analyzed by SDS-PAGE under reducing conditions to determine purity. […]

Experiment [5] concerns B16 melanoma tumors. The experiment is described as follows: Intratumoral injection of B16 melanoma tumors. The experiment is classed as in vivo, athymic nu/nu mice. Particulars: 1 μg recombinant human PF4var1, 6 intratumoral injections over 2 weeks, B16 melanoma in nu/nu mice. The method, then:
Animal experiments were approved by the local animal ethics committee (University of Leuven), and conducted in conformity with the Belgian and European guidelines for the protection of animals used for scientific purposes. Experiments were performed with 6 to 8 weeks old female athymic nu/nu mice (NMRI background) kept in a specific pathogen-free environment (Elevage Janvier, Le Genest Saint Isle, France). Two consecutive experiments were performed, the first comprising 20 mice, the second 18 mice. B16 melanoma cells in log phase (2×10^6 cells resuspended in 200 μl of PBS) were injected subcutaneously on day 1 in the right dorsal flank. Animals were injected at the tumor site with 50 μl of test sample, i.e. endotoxin-free saline (0.9% NaCl, Baxter, Lessines, Belgium), 5 pg of natural human PF4 or 1 μg of recombinant human PF4var1 in saline. Treatment started on day 3, in total 6 intratumoral injections were administered three times a week over a period of 2 weeks. All animals were observed three times a week, the tumor dimensions were measured with calipers and tumor size was calculated (tumor volume=4/3Πab^2; a is the smallest diameter/2 and b is the largest diameter/2 in millimeters). At the end of the experiments tumor size was calculated more precisely after dissection of the tumor using the formula 4/3Πabc (a, b and c width/2, length/2 and depth/2, respectively). […]

[6] abbreviates: 50 ng of the cytokine alone, six days after implantation.
Setting [7] is: 50 ng combined with bFGF (50 ng).

Values joined by “and” are separate entries in the source; they are usually repeats but may differ in a detail not shown here. Equal entries are not always repeated.

Take “bFGF: Fibroblast growth factor used as endothelial cell chemoattractant and angiogenesis inducer (Peprotech) [reference compound]”: in experiment [1] (setting [6]), the “No of neg pellets (no neovascularization / total pellets implanted)” value is given as 0/25 and the “No of pos pellets (angiogenic response / total pellets implanted)” value is listed as 25/25.

B1: PF4: Platelet Factor 4, CXC chemokine; authentic natural human PF4 purified from platelets as comparator (protein)
chain: EAEEDGDLQCLCVKTTSQVRPRHITSLEVIKAGPHCPTAQLIATLKNGRKICLDLQAPLYKKIIKKLLES
For the molecule B1, in experiment [2], the “dose for optimal inhibition of metastases or lung weight” value is reported as > 5 mg PF4 per kg of body weight. For the same molecule, in experiment [1] (setting [7]), the “% inhibition of bFGF-induced angiogenesis” value was 23%; the “No of neg pellets (no neovascularization / total pellets implanted)” value is 5 of 22 and 5/22; the “No of pos pellets (angiogenic response / total pellets implanted)” value is listed as 17/22. Moreover, in experiment [1] (setting [6]), the “No of neg pellets (no neovascularization / total pellets implanted)” value is on record as 17/22 and the “No of pos pellets (angiogenic response / total pellets implanted)” value was 5/22. In experiment [3] (test protein 300 ng/ml), the “inhibition of CXCL8-induced HMVEC chemotaxis” value is “failed to inhibit” and the “inhibition of bFGF-induced HMVEC chemotaxis” value was “failed to inhibit”. For the same molecule, in experiment [3], the “inhibition of the migration of the cells” value was ~80% and the “migration of HMVEC toward bFGF or CXCL8 (FIG. 4 Panel C)” value was “reduce migration”. Besides, the “inhibition of migration of HMVEC” value in experiment [3] (at concentrations as high as 300 ng/ml, toward bFGF or CXCL8) was “practically no inhibition”. In experiment [4], the “salt concentration at elution from heparin-Sepharose column” value is given as 1.6-1.8 M NaCl.

B2: PF4var1: natural and recombinant versions of the human natural variant of the PF4 protein; 70 amino acid mature form, SEQ ID NO: 1 (protein, listed as Homo sapiens)
chain: EAEEDGDLQCLCVKTTSQVRPRHITSLEVIKAGPHCPTAQLIATLKNGRKICLDLQALLYKKIIKEHLES
modifications: mat_peptide (1)..(70) PFvar1
Consider B2, for which, in experiment [1] (setting [7]), the “% inhibition of bFGF-induced angiogenesis” value was 73%; the “No of neg pellets (no neovascularization / total pellets implanted)” value was 16 of 22 and 16/22; the “No of pos pellets (angiogenic response / total pellets implanted)” value is recorded as 6/22. Further, in experiment [1] (setting [6]), the “No of neg pellets (no neovascularization / total pellets implanted)” value was 21/22 and the “No of pos pellets (angiogenic response / total pellets implanted)” value is recorded as 1/22. Also, in experiment [3] (test protein 10-100 ng/ml), the “inhibition of CXCL8-induced HMVEC chemotaxis” value is “completely blocked” and the “inhibition of bFGF-induced HMVEC chemotaxis” value is listed as “completely blocked”. For the same molecule, the “potency on angiogenesis relative to PF4” value in experiment [3] (PF4var1 versus PF4) came out at 100 fold. Also, in experiment [3], the “inhibition of the migration of the cells” value is on record as ~100% and the “migration of HMVEC toward bFGF or CXCL8 (FIG. 4 Panel C)” value was “reduce migration”. The “concentration giving an inhibition of 50% of the migration of HMVEC” value in experiment [3] (chemotaxis of HMVEC toward bFGF or CXCL8) is given as “around 2.5 ng/ml”. Also, the tumor growth entry in experiment [5] is “capable of reducing tumor growth”. In addition, in experiment [4] (based on elution at lower salt concentrations from heparin-Sepharose), the “heparin binding affinity compared with PF4” value is “lower affinity than PF4”. Moreover, the “salt concentration at elution from heparin-Sepharose column” value in experiment [4] is reported as 1-1.4 M NaCl.

The record behind these values is patent US20090011981A1, “Novel Inhibitors of Angiogenesis” (K.U. LEUVEN RESEARCH & DEVELOPMENT, priority 2004, published 2009).
